Patent publication US20250034275A1 (CHIA TAI TIANQING PHARMACEUTICAL GROUP, published 2025)

T1: human Trop-2 (on the surface of human cell lines) (human, UniProt P09758 27-323)
T1 sequence: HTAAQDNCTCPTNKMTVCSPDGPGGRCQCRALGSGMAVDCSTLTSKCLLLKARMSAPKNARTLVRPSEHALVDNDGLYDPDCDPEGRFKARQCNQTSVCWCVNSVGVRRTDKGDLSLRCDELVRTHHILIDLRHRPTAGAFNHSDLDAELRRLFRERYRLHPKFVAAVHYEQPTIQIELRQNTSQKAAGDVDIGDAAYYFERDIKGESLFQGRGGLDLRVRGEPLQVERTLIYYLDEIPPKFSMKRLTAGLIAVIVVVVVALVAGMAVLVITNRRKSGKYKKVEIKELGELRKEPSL

T2: human Trop-2-His (human, UniProt P09758 27-274, limits assumed)
T2 construct: by analogy with the macaque construct it is probably the extracellular domain with a His tag; also called Trop-2-His protein
T2 sequence: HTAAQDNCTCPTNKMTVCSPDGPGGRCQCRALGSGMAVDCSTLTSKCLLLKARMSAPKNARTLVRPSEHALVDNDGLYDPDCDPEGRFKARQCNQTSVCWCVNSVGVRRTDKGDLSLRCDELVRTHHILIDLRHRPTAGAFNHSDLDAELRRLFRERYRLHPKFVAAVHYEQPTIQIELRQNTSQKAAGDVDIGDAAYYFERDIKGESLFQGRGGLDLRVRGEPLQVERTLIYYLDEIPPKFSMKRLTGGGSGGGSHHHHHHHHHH

T3: Macaque Trop-2-His (macaque, UniProt P09758 27-274 (human entry))
T3 construct: Extracellular domain of macaque Trop-2 recombinantly linked to His; also called monkey Trop-2-His protein; monkey Trop-2
T3 chain: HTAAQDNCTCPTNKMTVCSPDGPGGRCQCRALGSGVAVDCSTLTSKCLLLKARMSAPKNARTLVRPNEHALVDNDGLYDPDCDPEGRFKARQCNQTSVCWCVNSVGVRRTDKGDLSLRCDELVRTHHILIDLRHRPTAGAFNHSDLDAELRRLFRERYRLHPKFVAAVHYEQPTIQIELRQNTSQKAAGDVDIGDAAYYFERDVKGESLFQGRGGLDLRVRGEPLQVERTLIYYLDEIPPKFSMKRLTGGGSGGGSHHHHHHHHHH


Experiments:
[1] = molecular target: T1, human Trop-2 (on the surface of human …); experiment: cell-based or functional assay
[2] = molecular target: T1, human Trop-2 (on the surface of human …); experiment: cell-based or functional assay; remark: listed apart in the source
[3] = molecular target: T1, human Trop-2 (on the surface of human …); experiment: flow cytometry, HCC38 cells
Protocol: (§1) Tumor cells expressing Trop-2 were prepared into a cell suspension (0.5-1×10⁶ cells/mL) using the FACS buffer (Miltenyi Biotec, 130-091-221), and the cell suspension was added to a 96-well V-bottom plate at 100 μL/well. After centrifugation and removal of the supernatant, the test antibodies diluted with the FACS buffer to different concentrations (0.006 nM-100 nM) were each added at 50 μL/well. The mixture was incubated in the dark in a 4° C. refrigerator for 1 h. The plate was then washed 3 times with the FACS buffer by centrifugation at 300 g, and Alexa Fluor 488 goat anti-human IgG (H+L) (Bio-legend, 409304, 1:500 dilution) at working concentration was added. The mixture was incubated in the dark in a 4° C. refrigerator for 40 min. The plate was then washed 3 times with the FACS buffer by centrifugation at 300 g, the geometric mean fluorescence intensity (MFI) was measured on a Sartorius iQue3 flow cytometer, and the binding EC₅₀ values of the antibodies for tumor cells with different Trop-2 expression levels were calculated

[4] = molecular target: T1, human Trop-2 (on the surface of human …); experiment: flow cytometry, HCC1806 cells
Protocol: as §1

[5] = molecular target: T1, human Trop-2 (on the surface of human …); experiment: flow cytometry, OVCAR-3 cells
Protocol: as §1

human Trop-2-His [6] = molecular target: T2, human Trop-2-His; experiment: ELISA, plate-coated human Trop-2-His
Protocol: (§2) After the liquid was discarded, 2% BSA (SIGMA, B2064-100G) diluted with PBS was added at 300 μL/well for blocking, and the mixture was incubated at 37° C. for 2 h. After the blocking was completed, the blocking buffer was discarded, the plate was washed 3 times with PBST buffer (pH 7.4 PBS containing 0.1% tween-20), the antibody solution diluted in a gradient was added at 100 μL/well, and the mixture was incubated at 37° C. for 1 h. After the incubation was completed, the plate was washed 3 times with PBST, the goat anti-human IgG (H+L) (JacksonImmunoResearch, 109-035-098, 1:5000 dilution) was added at 100 μL/well, and the mixture was incubated at 37° C. for 1 h. After the plate was washed 3 times with PBST, a TMB chromogenic substrate (TIANGEN, PA107-01) was added at 100 μL/well. The mixture was incubated at room temperature for 10-15 min, and then 1 M H₂SO₄ was added at 50 μL/well to terminate the reaction. The absorbance values at 450 nm were taken using a microplate reader. The binding curves of antibodies for antigen were fitted using software, and the EC₅₀ values were calculated.

Macaque Trop-2-His = molecular target: T3, Macaque Trop-2-His; experiment: ELISA, plate-coated macaque Trop-2-His
Protocol: as §2, with “times with the PBST buffer” for “times with PBST buffer”

human Trop-2-His [7] = molecular target: T2, human Trop-2-His; experiment: SPR (Biacore 8K), antibody captured, Trop-2-His as analyte
Source text: The affinity of antibodies for human Trop-2-His was detected in the form of antibody capturing. The antibody was affinity-captured by a CM5 (Cat. #29149603, GE) biosensor chip conjugated with an anti-human IgG antibody (from human antibody capture kit, Cat. #29234600, GE), then the antigen human Trop-2-His flowed on the surface of the chip, and a Biacore 8K instrument was used for detecting reaction signals in real time to obtain association and dissociation curves. After dissociation was completed for each assay cycle, the chip was washed clean and regenerated with a regeneration buffer, 3M MgCl₂ (from human antibody capture kit, Cat. #29234600, GE). The association and dissociation curves were collected by Biacore 8K Control Software 3.0 in real time, and the data were analyzed by Biacore Insight Evaluation Software 3.0. The data were fitted using a Langmuir 1:1 model after double subtraction (namely, in each cycle, the contrast channel signal was subtracted from the experimental channel signal, and the sample signal was subtracted from the blank signal), and the association rate constant Ka, the dissociation rate constant Kd, and the equilibrium constant KD were calculated.

Row | Binder | ADCC reporter (Jurkat-CD16a v158-NFAT-luciferase), target cell H322, EC50 [1] | ADCC reporter (Jurkat-CD16a v158-NFAT-luciferase), target cell HCC1806, EC50 [1] | ADCC, PBMC killing (LDH), H322, EC50 [2] | ADCC, PBMC killing (LDH), H322, Maximum killing (%) [2] | ADCC, PBMC killing (LDH), HCC1806, EC50 [2] | ADCC, PBMC killing (LDH), HCC1806, Maximum killing (%) [2] | EC50 [3] | EC50 [4] | EC50 [5] | EC50 (human Trop-2-His [6]) | EC50 (Macaque Trop-2-His) | Kd (human Trop-2-His [7]) | koff (human Trop-2-His [7]) | kon (human Trop-2-His [7])
1 | hz-Ab21-2.1 (antibody, human IgG1, kappa, V domains shown, Humanized antibody) VH: EVQLVESGGGLVKPGGSLRLSCAASGFTLRNYGVHWVRQAPGKGLEWVGVIWSSGTTDYAAPVKGRFTISKDNSKNTLYLQMNSLKTEDTAVYYCTRDGDYDYYTMDYWGQGTLVTVSS VL: EIVLTQSPATLSLSPGERATLSCRASKSVSTSAYSYIHWYQQKPGQPPRLLIYLTSNLESGIPARFSGSGSGTDFTLTISSLEPEDFAVYYCQHSRELPYTFGQGTKVEIKR | 0.21 nM | 0.39 nM | 0.02 nM | 44.5% | 0.12 nM | 32.2% | 0.64 nM | 0.63 nM | 0.68 nM | 0.214 nM | 0.064 nM | 1.38 nM | 0.000559 s⁻¹ | 404000 M⁻¹ s⁻¹
2 | hz-Ab21-2.2 (antibody, human IgG1, kappa, V domains shown, Humanized antibody) VH: EVQLVESGGGLVKPGGSLRLSCAASGFTLRNYGVHWVRQAPGKGLEWVGVIWSSGTTDYNAAFISRFTISKDNSKNTLYLQMNSLKTEDTAVYYCTRDGDYDYYTMDYWGQGTLVTVSS VL: EIVLTQSPATLSLSPGERATLSCRASKSVSTSAYSYIHWYQQKPGQPPRLLIYLTSNLESGIPARFSGSGSGTDFTLTISSLEPEDFAVYYCQHSRELPYTFGQGTKVEIKR | 0.15 nM | 0.26 nM | 0.07 nM | 51.6% | 0.18 nM | 40.6% | 0.66 nM | 1.18 nM | 0.8 nM | 0.223 nM | 0.081 nM | 1.33 nM | 0.000611 s⁻¹ | 460000 M⁻¹ s⁻¹
3 | hz-Ab35-2.1 (antibody, human IgG1, kappa, V domains shown, Humanized antibody) VH: QVQLVQSGAEVKKPGASVKVSCKASGYTFTSSDINWVRQRPGQGLEWMGWIYPRDGSKKYAQKFQGRVTMTVDTSTSTVYMELSSLRSEDTAVYYCATRFATVVSNYGLDPWGQGTLVTVSS VL: EIVLTQSPATLSLSPGERATLSCSASSSVNYIYWYQRKPGQAPRLLIYDTSNLASGIPARFSGSGSGTDYTLTISSLEPEDFAVYYCQQWNSYPLTFGQGTKVEIKR | 0.1 nM | 0.23 nM | 0.02 nM | 51.3% | 0.03 nM | 35.2% | 0.89 nM | 0.76 nM | 0.9 nM | 0.055 nM | 0.056 nM | 0.444 nM | 0.000194 s⁻¹ | 436000 M⁻¹ s⁻¹
4 | hz-Ab35-2.2 (antibody, human IgG1, kappa, V domains shown, Humanized antibody) VH: QVQLVQSGAEVKKPGASVKVSCKASGYTFTSSDINWVRQRPGQGLEWMGWIYPRDGSKKYNEKFKGRVTMTVDTSTSTVYMELSSLRSEDTAVYYCARRFATVVSNYGLDPWGQGTLVTVSS VL: EIVLTQSPATLSLSPGERATLSCSASSSVNYIYWYQRKPGQAPRLLIYDTSNLASGIPARFSGSGSGTDYTLTISSLEPEDFAVYYCQQWNSYPLTFGQGTKVEIKR | 0.11 nM | 0.26 nM | 0.01 nM | 51.4% | 0.02 nM | 35.9% | 0.91 nM | 0.58 nM | 0.88 nM | 0.054 nM | 0.05 nM | 8.82 nM | 0.00357 s⁻¹ | 405000 M⁻¹ s⁻¹
5 | hz-Ab35-2.3 (antibody, human IgG1, kappa, V domains shown, Humanized antibody) VH: QVQLVQSGAEVKKPGASVKVSCKASGYTFTSSDINWVRQRPGQGLEWMGWIYPRDGSKKYNEKFKGRVTMTVDTSTSTVYMELSSLRSEDTAVYYCATRFATVVSNYGLDPWGQGTLVTVSS VL: EIVLTQSPATLSLSPGERATLSCSASSSVNYIYWYQRKPGQAPRLLIYDTSNLASGIPARFSGSGSGTDYTLTISSLEPEDFAVYYCQQWNSYPLTFGQGTKVEIKR | 0.11 nM | 0.21 nM | 0.02 nM | 50.3% | 0.03 nM | 35.7% | 0.91 nM | 0.61 nM | 0.74 nM | 0.065 nM | 0.031 nM | 0.675 nM | 0.000281 s⁻¹ | 416000 M⁻¹ s⁻¹
